Data on one molecule can be found in publication PMC5935710, “Structure and mechanism of the two-component α-helical pore-forming toxin YaxAB” (Nature Communications, 2018).

Data set [1] concerns the target T1, YaxA (Y. enterocolitica, UniProt A1JM51 1-411).
T1 construct: YaxA of Yersinia enterocolitica serovar 8, biovar 1 (ATCC 23715), ORF YE1984; 45.9 kDa; native mass spectrometry verified that the full-length protein was purified; the ORF was amplified from cDNA of ATCC 23715; The pore model 6EL1 holds YaxA residues 45-153 and 169-410; also called YaxA^WT; WT YaxA; not shown: His6, N-terminal, cleaved; SUMO, N-terminal, cleaved
T1 sequence: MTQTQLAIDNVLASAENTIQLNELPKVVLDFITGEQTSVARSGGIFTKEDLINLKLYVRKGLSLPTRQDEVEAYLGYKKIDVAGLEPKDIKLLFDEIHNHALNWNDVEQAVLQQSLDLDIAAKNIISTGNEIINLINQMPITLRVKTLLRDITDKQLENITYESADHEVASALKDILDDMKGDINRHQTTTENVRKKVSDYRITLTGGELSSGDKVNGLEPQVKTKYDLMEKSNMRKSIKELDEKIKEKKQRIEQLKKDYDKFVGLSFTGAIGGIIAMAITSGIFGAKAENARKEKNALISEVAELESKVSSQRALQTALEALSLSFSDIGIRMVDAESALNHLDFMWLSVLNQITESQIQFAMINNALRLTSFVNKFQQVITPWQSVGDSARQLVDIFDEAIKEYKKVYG
The experiment in a line: negative-stain EM; YaxA, then YaxB (1.5-fold molar excess) on human erythrocyte ghosts; pores extracted with 1.5% Cymal-6, purified on Superose 6 and a 10-40% sucrose gradient; 0.1 mg/mL on grids, uranyl formate stain. The conditions noted are these: both partners purified.

Data set [2] concerns the molecule itself. The data set can be described thus: cryo-EM structure; 1 mg each of YaxA and YaxB mixed at room temperature, Cymal-6 treated, Superose 6, exchanged into amphipol A8-35; 2 mg/mL; C10 symmetry imposed, 6.1 Å; a C9 class at 7.6 Å.
The target in data set [3] is T1, YaxA. The experiment in a line: SEC; purified YaxA and YaxB mixed in solution; ratio of the two in the complex from SDS-PAGE band intensities. To be noted: both partners purified. In general terms: Size exclusion chromatography separates by hydrodynamic size, large species first.

B1: YaxB (natural protein)
chain: MAEISTFPHSGLSYPDINFKIFSQGVKNISHLAQFKTTGVEVLQEKALRVSLYSQRLDVIVRESLSSLQVKLENTLALTYFTTLEEIDEALISQDIDEESKSEMRKERINIIKNLSNDITQLKQLFIEKTELLDKSSSDLHNVVIIEGTDKVLQAEQLRQKQLTEDIATKELERKEIEKKRDKIIEALDVIREHNLVDAFKDLIPTGENLSELDLAKPEIELLKQSLEITKKLLGQFSEGLKYIDLTDARKKLDNQIDTASTRLTELNRQLEQSEKLIAGVNAVIKIDQEKSAVVVEAEKLSRAWHIFIHEITALQGTSLNEVELSKPLIKQQIYLESLIKQLI
notes: YaxB of Yersinia enterocolitica serovar 8, biovar 1 (ATCC 23715), ORF YE1985; 39.3 kDa; the ORF was cloned behind His6 and a TEV site; the ORF was amplified from cDNA of ATCC 23715; The pore model 6EL1 holds YaxB residues 12-343; also called YE1985; not shown: His6, N-terminal, cleaved
Consider B1, for which the “radial spokes (YaxA–YaxB dimers) per complex” value with YaxA [1] was 11 fold symmetry. Moreover, the stoichiometry N (usually the number of molecules, sites or subunits per partner or assembly) in data set [2] is 10; with YaxA [3], 1 YaxA:YaxB.
